Measured values: patent US20220089691A1 (NATIONAL DEFENSE MEDICAL CENTER, published 2022)

Target: T1, SARS-CoV spike protein as made in Vero E6 cells infected with SARS-CoV (SARS-CoV, UniProt P59594 14-1255)
T1 construct: whole, on cells
Assay: IFA on Vero E6 cells infected with SARS-CoV

B1: Monoclonal antibody (mAb) 8a-1 (antibody, V domains shown)
VH: EVQLQESGGGLVQPGGSLKLSCAASGFTFSSYTMSWVRQTPEKRLEWVAYISNGGGSISYPDTVKGRFTISRDNAKNTLYLHMSSLKSEDTAMYHCAREGLRPGDRDRYYAMDYWGQGTSVTVSS
VL: DIVITQSPALMAAFPGDRVTITCSVSSSVSSSNLHWYRQKSETSPKPWIYGTSTLASGVPVRFSGSGSGTSYSLTISSMEAEDAATYYCQQWSSYPLTFGAGTKLELKR
notes: also called clone 8a-1; first antibody
**Q.** Does B1 bind?
**A.** binds

B2: Monoclonal antibody (mAb) 27b-2 (antibody, V domains shown)
VH: EVQLQESGGGLVKLGGSLKLSCAASGFTFSTYYMSWVRQTPEKRLELVAAINSNGGGTYYPDNVKGRFTISRDNAKNTLYLQMSSLKSEDTALYYCTNYFGSTYAMDYWGQGTSVTVSS
VL: DIVLTQSPLSLPVSLGDQASISCRSSQSLVHSNGNTYLHWYLQKPGQSPKLLIYKVSNRFSGVPDRFSGSGLGTDFTLKIIRVEAEDLGVYFCSQNTHVPFTFGSGTKLEIKR
notes: also called clone 27b-2; second antibody
**Q.** Does B2 bind?
**A.** binds
